Test results as given in patent US6586559B2, “Polyamide oligomers” (Inex Pharmaceuticals Corporation, priority 1997, dated 2003).

Assay: Encapsulation of cationic peptide IB510 in liposomes (extrusion, BioGel column, LSC/HPLC)
Format: physicochemical
Details: ATTA8-DSPE versus PEG-PE
Procedure: Lipid films (total of 100 mg of lipid) were prepared by dissolving appropriate quantities of individual lipids in 200 to 500 μL of chloroform, mixing the lipids, then removing the chloroform under high vacuum. Specifically, prepared lipid films were sphingomyelin/cholesterol/PEG-PE (50/45/5 molar ratios; prepared from 53.2 mg sphingomyelin, 26 mg cholesterol and 20 mg PEG-PE) and sphingomyelin/cholesterol/ATTA8-DSPE (50/45/5 molar ratios; prepared from 53.2 mg sphingomyelin, 26 mg cholesterol and 20 mg ATTA8-DSPE) and contained 1 μCi of 3H-cholesterylhexadecylether as a radiolabelled tracer. […] 5 μl were removed for phosphate assay to quantify the phospholipid and for liquid scintillation counting (LSC). […]
Aliquots of 200-400 μL of the large unilamellar vesicles containing IB510 were passed over a 20 cm×1 cm BioGel A-15 m (50-100 mesh) column pre-equilibrated in 150 mM NaCl and 20 mM Hepes (pH 7.5). […] The concentrations of liposomes and peptide were quantified by LSC and HPLC, respectively. Encapsulation efficiency was calculated from the post-column peptide/lipid ratio divided by the precolumn peptide/lipid ratio. […]

Substance | encapsulation efficiency (comparison in words)
N-(ω-azido-octa-(14′-amino-3′,6′,9′,12′-tetraoxatetradecanoyl))-1,2-distearoyl-sn-glycero-3-phosphoethanolamine [ATTA8-DSPE] | superior to PEG-PE
Octa-(14-amino-3,6,9,12-tetraoxatetradecanoic acid) [ATTA8] | superior to PEG
